Test results: patent publication US20210139602A1 (MEDABOME, published 2021)

Target: T1, rPODXL-v2-Del-Fc fusion protein (human, UniProt O00592-2 23-429, highly glycosylated)
T1 construct: extracellular domain; In-frame fusion of the ECD and human IgG1 Fc, expressed in CHO-K1; The two deletions are written as substitutions to '-'; not shown: human IgG1 Fc from the pFUSE-hIgG1-Fc1 expression vector (InvivoGen)
T1 sequence (looked up): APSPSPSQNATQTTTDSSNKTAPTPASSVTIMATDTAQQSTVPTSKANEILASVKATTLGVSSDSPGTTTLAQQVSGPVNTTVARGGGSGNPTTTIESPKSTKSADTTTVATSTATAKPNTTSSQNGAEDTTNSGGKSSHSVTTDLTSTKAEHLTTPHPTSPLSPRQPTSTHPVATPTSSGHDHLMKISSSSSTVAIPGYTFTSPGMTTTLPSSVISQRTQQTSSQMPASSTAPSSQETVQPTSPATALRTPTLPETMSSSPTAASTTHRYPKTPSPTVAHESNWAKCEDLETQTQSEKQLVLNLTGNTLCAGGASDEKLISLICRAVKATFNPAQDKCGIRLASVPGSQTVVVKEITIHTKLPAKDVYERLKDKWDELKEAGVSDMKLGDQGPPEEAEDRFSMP
Assay: BLI (Octet QKe), mAb captured on anti-mouse IgG Fc (AMC) biosensors, antigen in 1:2 serial dilutions
Procedure: The Octet® QKe System (Molecular Devices, San Jose, Calif.) was used to determine the binding affinities between MAI1738 mAb and the extracellular domains of PODXL-v2 and PODXL-v2-Del. The MAI1738 mAb was immobilized to the Anti-Mouse IgG Fc Capture (AMC) biosensors, followed by loading of the antigen, rPODXL-v2-Fc or rPODXL-v2-Del-Fc, at 1:2 serial dilutions for 5 minutes. The assay was repeated multiple times to determine the average range of the affinity between MAI1738 and rPODXL-v2-Fc or rPODXL-v2-Del-Fc.

B1: MAI1738 mAb (antibody, V domains shown)
VH: EVKLVESGGGLVKPGGSLKVSCAASGFTFSTYTMSWVRQTPEKRLEWVATISGGVIYTYYPDSVKGRFTISRDDAKNTLYLQMSSLRSEDTALYYCARHYSNYEGQGMDSWGQGTSVTVSS
VL: DIVLTQSPVTLSVTPGDSVSLSCRASQSINNNLHWYQQKSHESPRLLIKYASQSISGIPPRFSGSRSGTDFTLSINTVETEDFGVYFCQQSNSWPLTFGAGTKLELKR
notes: Mouse monoclonal antibody from a hybridoma (A/J mice); it is detected with anti-mouse IgG-Fc; also called anti-PODXL-v2 monoclonal antibody; second subclone of MS17-38
B1 showed a Kd of 1.58 nM.
